According to publication PMC6651182, “Importance of the Choice of a Recombinant System to Produce Large Amounts of Functional Membrane Protein hERG” (International Journal of Molecular Sciences, 2019):

Tests used:
hERG(S1-coil) [1] = target: T1, hERG(S1-coil) (Homo sapiens, UniProt Q12809, N598Q); assay: Electrophysiology on planar lipid bilayers with purified hERG(S1-coil) (stable HEK, DDM); type: biochemical; conditions: samples pre-incubated with 10 µM toxin; lipid bilayer; data not shown
T1 construct: hERG(362-675) + coiled-coil
Protocol: Crude membranes prepared from P. pastoris, Sf9 or stable HEK cells expressing hERG(S1-coil) were solubilized in 50 mM HEPES, pH 7.5, 300 mM KCl containing 1% DPC or DDM and 0.2% cholesteryl-hemisuccinate (CHS, Sigma Aldrich) at slow rotation at +4 °C for 1 h. Samples were centrifuged at 25,000 g for 15 min at +4 °C. […] After transferring to a column and washing the resin with 15 CV of 50 mM HEPES, pH 7.5, 300 mM KCl, 50 mM imidazole, 0.1% (w/v) DPC and 0.02% (w/v) CHS, hERG(S1-coil) was eluted with 250 mM imidazole in the same buffer. For purification of hERG(S1-coil) overexpressed in Sf9 cells in DPC, the supernatant was diluted 2-fold in 50 mM HEPES, pH 7.5 and transferred to a Strep-Tactin column (Strep-TactinSuperflow, IBA, Göttingen, Germany) at a ratio of 1 mL resin for 100 mL supernatant. […] Purified samples were analysed by SDS-PAGE and Western blot and protein concentrations determined by BCA assay.
Planar lipid bilayers were formed at room temperature by painting a solution of azolectin (Type IVS, Sigma Aldrich) at 45 mg/mL in decane across a 200 µm aperture in a polysulfonate cup (Warner Instruments, Hamden, CT, USA) separating two chambers. […] A total of 500 ng of chimeric hERG protein was added in the cis chamber and the resulting channel activity recorded for at least 2 min. […]

hERG-wt = hERG-wt (Homo sapiens, UniProt Q12809); assay: Two-electrode voltage clamp in Xenopus oocytes, inhibition of hERG-wt tail current; conditions: mean ± SEM, n = 7
Protocol: (§1) (A). Current-voltage relationship for hERG-wt and hERG(S1-coil). Currents measured at the end of a 4 seconds long depolarizing pulse (from −70 to 30 mV) were normalized to the maximal current for hERG-wt (n = 21) and hERG(S1-coil) (n = 19). (B). Steady-state voltage-dependence of activation. […] (C).
(§2) Stage V–VI oocytes were removed from female Xenopus under tricaine anaesthesia. […] After intensive washing with OR2 solution, oocytes were injected with RNA preparation (about 30 nL per oocyte) and recorded 2–5 days after injection. Currents were recorded at room temperature using the two-electrode voltage clamp method. Electrodes were pulled from borosilicate glass and filled with 3 M KCl. Currents were measured by a Geneclamp 500 amplifier (Molecular Devices, San Jose, CA, USA) and digitized by a Digidata 1200 converter (Molecular Devices) using Clampex 5 software (Molecular Devices). […] We determined the concentration to obtain the half maximal inhibition (IC50) by measuring the peak tail current recorded during the second pulse at −50 mV in the presence of increasing concentrations of inhibitor and normalized the value to the current measured in the absence of inhibitor. […] The significance of the difference between two results was determined using the unpaired Student’s test set at the 0.01 level.

hERG(S1-coil) [2] = target: hERG(S1-coil) (Homo sapiens, UniProt Q12809); assay: Two-electrode voltage clamp in Xenopus oocytes, inhibition of hERG(S1-coil) tail current; conditions: mean ± SEM, n = 8
Protocol: as §1, §2

BeKm-1 (RPTDIKCSESYQCFPVCKSRFGKTNGRCVNGFCDCF; UniProt Q9BKB7 22-57, looked up)
current at −100 mV (hERG(S1-coil) [1]): did not have any current
IC50 (hERG-wt): 0.0217 ± 0.00276 µM
IC50 (hERG(S1-coil) [2]): 0.0249 ± 0.00377 µM
